Source: patent EP4796630A2 (Hugel Inc., dated 2026)
Several values for one entry are separate records, joined by “and”; a condition that tells them apart may be missing. Identical values can stand only once. Like-named read-outs stand apart in the source and are kept apart here.

What was measured:
[1] = molecular target: T1, recombinant GST-SNAP25197 (UniProt P60880 1-197)
[2] = molecular target: T1, recombinant GST-SNAP25197; remark: listed apart in the source
recombinant GST-SNAP25FL [3] = molecular target: T2, recombinant GST-SNAP25FL (UniProt P60880 1-206); test: BLI (Octet Red96), IgG on AMC biosensor, GST-SNAP25FL as analyte
T2 construct: range 1-206; also called SNAP25 206; full-length SNAP25; not shown: GST tag
T2 sequence (P60880 whole entry): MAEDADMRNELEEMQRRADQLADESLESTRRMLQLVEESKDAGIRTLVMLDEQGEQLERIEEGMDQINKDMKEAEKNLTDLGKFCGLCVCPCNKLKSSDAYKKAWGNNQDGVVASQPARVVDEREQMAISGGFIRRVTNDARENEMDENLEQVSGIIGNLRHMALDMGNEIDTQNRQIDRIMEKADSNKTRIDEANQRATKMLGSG

[4] = molecular target: T1, recombinant GST-SNAP25197; test: direct ELISA; ratio of A450 with SNAP25197 to A450 with SNAP25FL
[5] = molecular target: T1, recombinant GST-SNAP25197; test: BLI (Octet Red96), IgG on AMC biosensor, GST-SNAP25197 as analyte
[6] = molecular target: T1, recombinant GST-SNAP25197; test: as above; remark: listed apart in the source
recombinant GST-SNAP25FL [7] = molecular target: T2, recombinant GST-SNAP25FL; test: BLI (Octet Red96), IgG on AMC biosensor, GST-SNAP25FL as analyte; remark: listed apart in the source
recombinant GST-SNAP25FL [8] = molecular target: T2, recombinant GST-SNAP25FL; test: BLI (Octet Red96), IgG on AMC biosensor, GST-SNAP25FL as analyte; from tentative Kdis
recombinant GST-SNAP25FL [9] = molecular target: T2, recombinant GST-SNAP25FL; test: BLI (Octet Red96), IgG on AMC biosensor, GST-SNAP25FL as analyte; Kdis is the instrument's lowest limit, tentatively given
[10] = molecular target: T3, endogenous SNAP25197 in total cell lysate of BoNT/A-treated N2-42F cells (mouse, UniProt P60879 1-197); test: sandwich ELISA on lysate of BoNT/A-treated N2-42F cells
T3 construct: range 1-197; also called SNAP25197 captured
T3 sequence (P60879 1-197 limits assumed): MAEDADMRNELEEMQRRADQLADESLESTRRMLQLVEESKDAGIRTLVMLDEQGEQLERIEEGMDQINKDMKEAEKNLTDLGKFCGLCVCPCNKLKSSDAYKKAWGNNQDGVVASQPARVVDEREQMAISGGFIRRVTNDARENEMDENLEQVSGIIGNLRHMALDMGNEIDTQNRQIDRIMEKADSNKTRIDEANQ

[11] = molecular target: T3, endogenous SNAP25197 in total cell …; test: sandwich ELISA, plate coated with B4 IgG, lysate of BoNT/A-treated N2-42F cells

T1 sequence (P60880 1-197 limits assumed): as the sequence (P60879 1-197 limits assumed) above

Binder	Kd [1]	koff [1]	kon [1]	Kd [2]	koff [2]	binding result (recombinant GST-SNAP25FL [3])	Ratio197/206 [4]	kon [5]	binding result [6]	kon (recombinant GST-SNAP25FL [7])	Kd (recombinant GST-SNAP25FL [8])	koff (recombinant GST-SNAP25FL [9])	binding result [10]	binding result [11]	Kd [5]	koff [5]
C4 IgG (antibody, V domains shown) VH: DVKLQESGPGLVKPSQSLSLTCTVTGYSITSDYAWNWIRQFPGNKLEWMGYISYSVGTRYNPSLKSRISITRDTSKNQFFLLLKSVTNEDTATYFCARKGEYGFAYWGQGTLVTVSA VL: DIVMTQSPASLAVSLGQRATISCRASKSVSTSGYSYMHWYQQKPGQPPKLLIYLASNLESGVPARFSGSGSGTDFTLNIHPVEEEDAATYYCQHSRELPLTFGAGTKLELK	6.53 nM and 17.8 nM	0.00148 s⁻¹ and 0.0041 s⁻¹	230000 M⁻¹ s⁻¹ and 227000 M⁻¹ s⁻¹	1.07 pM	1e-07 s⁻¹	no binding (tested: up to 1 µM)	919	92800 M⁻¹ s⁻¹	–	–	–	–	–	–	–	–
C24 IgG (antibody, V domains shown) VH: EVKLVESGGGLVQPKGSLKLSCAASGYTFNTYAMNWVRQAPGKGLEWVARIRSKSNNYTTYYADSVKDRFTISRDDSQSMLYLQINNLKTEDTAMYYCVGQILYYYVGSPAWFAYWGQGTLVTVSA VL: DIVMTQSPASLAVSLGQRATISCRASKSVSTSGYSYMHWYQQKPGQPPKLLIFLASNLESGVPARFSGSGSGTDFTLNIHPVEEEDAATYYCQHSRELPWTFGGGTKLEIK	9.62 nM and 5.25 nM	0.00509 s⁻¹ and 0.00241 s⁻¹	529000 M⁻¹ s⁻¹ and 458000 M⁻¹ s⁻¹	1.15 pM	1e-07 s⁻¹	no binding (tested: up to 1 µM)	973	86800 M⁻¹ s⁻¹	–	–	–	–	–	–	–	–
D6 IgG (antibody, V domains shown) VH: EVQLQQSGPELVKPGASVKISCKASGYTFTDYNMHWVKQSHGKSLEWIGYIYPYNGDTGYNQKFKSKATLTVDNSSSTAYMELRSLTSEDSAVYYCVRSGDYWGQGTTLTVSS VL: not shown	–	–	–	–	–	–	0.02	–	no binding	35200 M⁻¹ s⁻¹	≤ 2.84 pM	≤ 1e-07 s⁻¹	–	–	–	–
C16 IgG-HRP conjugate (antibody, V domains shown, also called C16-HRP; Cg16 IgG-HRP conjugates) VH: EVQLQQSGAELARPGASVQMSCKAFGYTFTNYTMHWVRQRPGQGLEWIGFINPSSDYTNYNQKFKDKATLSADKSSSTAYMQLSSLTSEDSAVYYCARRIFYNGRTYAAMDYWGQGTSVTVSS VL: DIVMTQSPASLAVSLGQRATISCRASKSVSSSGYSYMHWYQQKPGQPPKLLIYLASNLESGVPARFSGSGSGTDFTLNIHPVEEEDAATYYCQHSRELPLTFGAGTKLELK	–	–	–	–	–	–	–	–	–	–	–	–	binds	–	–	–
B4 IgG (antibody, V domains shown, also called B4 IgG1; clone 4) VH: EVKLVESGGGLVKPGGSLKLSCAASGFTFSNYGMSWVRQTPEKRLEWVATISSGGSYTYYPDSVKGRFTISRDNAKNTLYLQMSSLRSEDTAMYYCARHEGGGNPYFDYWGQGTTLTVSS VL: DVLMTQTPLSLPVSLGDQASISCRSSQSLVHSNGNTYLHWYLQKPGQSPKLLIYKVSNRFSGVPDRFSGSGSGTDFTLKISRVEAEDLGVYFCSQNTLVPWTFGGGTKLEIK	–	–	–	–	–	–	0.83	–	–	95100 M⁻¹ s⁻¹	≤ 0.1 pM	≤ 1e-07 s⁻¹	–	binds	–	–
C7 IgG (antibody, V domains shown, also called C7 IgG2a) VH: QVQLVETGGGLVQPKGSLKLSCAASGFTFNTNAMNWVRQAPGKGLEWVARIRSKSNNYATYYADSVKDRFTISRDDSQSLLYLQMNNLKTEDTAMYYCVYGRSYGGLSYWGQGTLVTVSA VL: DIVMTQSPASLAVSLGQRATISCRASKSVSSSGYSYMHWYQQKPGQPPKLLIYLASNLESGVPARFSGSGSGTDFTLNIHPVEEEDAATYYCQHSRELPLTFGAGTKLELK	–	–	277000 M⁻¹ s⁻¹ and 257000 M⁻¹ s⁻¹	1.28 pM	1e-07 s⁻¹	no binding (tested: up to 1 µM)	1040	77800 M⁻¹ s⁻¹	–	–	–	–	–	–	–	–
C14 IgG (antibody, V domains shown) VH: EVKLVESGGGLVQPKGSLKLSCAASGFTFNTNAMNWVRQAPGKGLEWVARIRSKSDNYATYYADSVKDRFTISRDDSPSMLYLQMNNLKTEDTAMYYCVYGRSYGGLGYWGQGTLVTVSA VL: DIVLTQSPASLAVSLGQRATISCRASKSVSTSGYSYVHWYQQKPGQPPKLLIYLASNLESGVPARFSGSGSGTDFTLNIHPVEEEDAATYYCQHSRELPLTFGAGTKLELK	–	–	–	≤ 1.3 pM	≤ 1e-07 s⁻¹	no binding (tested: up to 1 µM)	953	76700 M⁻¹ s⁻¹	–	–	–	–	–	–	–	–
C16 IgG (antibody, V domains shown, also called C16 IgG1) VH: EVQLQQSGAELARPGASVQMSCKAFGYTFTNYTMHWVRQRPGQGLEWIGFINPSSDYTNYNQKFKDKATLSADKSSSTAYMQLSSLTSEDSAVYYCARRIFYNGRTYAAMDYWGQGTSVTVSS VL: DIVMTQSPASLAVSLGQRATISCRASKSVSSSGYSYMHWYQQKPGQPPKLLIYLASNLESGVPARFSGSGSGTDFTLNIHPVEEEDAATYYCQHSRELPLTFGAGTKLELK	6.44 nM and 9.17 nM	0.00152 s⁻¹ and 0.00215 s⁻¹	236000 M⁻¹ s⁻¹ and 235000 M⁻¹ s⁻¹	–	–	no binding (tested: up to 1 µM)	996	1.6e+06 M⁻¹ s⁻¹	–	–	–	–	–	–	1.62 pM	2.57e-06 s⁻¹
B23 IgG (antibody, V domains shown, also called B23 IgG1) VH: EVQLQQSGAELVRPGASVKLSCTASGINIKDYYMHWMKQRPEQDLEWIGWIDPGNGDAEYAPKFQGKATMTADTSSNTAYLQLSSLTSEDTAVYYCNEIAYWGQGTLVTVSA VL: not shown	–	–	–	≤ 3.27 pM	≤ 1e-07 s⁻¹	–	0.92	25400 M⁻¹ s⁻¹	–	95800 M⁻¹ s⁻¹	≤ 0.1 pM	≤ 1e-07 s⁻¹	–	–	–	–
D3 IgG (antibody, V domains shown) VH: EVQLEESGGGLVQPGGSLKLSCAASGFTFSNYGMSWVRQTPDKRLELVATINSNGGTTYYPDSVKGRFTISRDNAKNTLYLQMSSLKSEDSAMYYCARDRDAMDYWGQGTSVTVSS VL: DVLMTQTPLSLPVSLGDQASISCRSSQSIVNSHGNTYLEWYLQKPGQSPKLLIYKVSNRFSGVPDRFSGSGSGTDFTLKISRVEAEDLGVYYCFQGSHVPWTFGGGTKLEIK	–	–	–	≤ 0.9 pM	≤ 1e-07 s⁻¹	no binding (tested: up to 1 µM)	12.9	111000 M⁻¹ s⁻¹	–	–	–	–	–	–	–	–
D2 IgG (antibody, V domains shown) VH: DVKLQESGPGLVKPSQSLSLTCSVTGYSITSGYYWNWIRQFPGNKLEWMGYIRYDGSNNYNPSLKNRISITRDTSKNQFFLKLNSVTTEDTASYYCARDRDSSYYFDYWGQGTALTVSS VL: DIVMTQSSSYLSVSLGGRVTITCKASDHINNWLAWYQQKPGNAPRLLISDTTSLETGVPSRFSGSGSGKDYTLSITSLQTEDVATYYCQQYWSAPPTFGGGTKLEIK	–	–	–	–	–	–	0.03	–	no binding	164000 M⁻¹ s⁻¹	≤ 0.61 pM	≤ 1e-07 s⁻¹	–	–	–	–
